Test results as given in patent US20100158922A1.

Target: recombinant human IFNγ (human) (UniProt P01579)
Assay: cell-based or functional assay

Chain of recombinant human IFNγ (human) (P01579 24-166 limits assumed): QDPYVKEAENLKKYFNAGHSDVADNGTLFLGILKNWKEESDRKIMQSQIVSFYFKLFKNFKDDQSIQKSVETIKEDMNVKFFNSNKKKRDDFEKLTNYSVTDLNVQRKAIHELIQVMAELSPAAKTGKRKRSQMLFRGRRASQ

MHC II Inhibition Cell-Based Assay IC50: 400 pM
Substance: R&D Systems mouse anti-human IFNγ antibody MAB285
